Measured values from the supplement of paper PMC7125110.
± gives the standard error. For part of these data: Variants at the floor of the assay were thinned out.

B1: glmS ribozyme (parent)
chain: AUAAAAGCGCCAGAACUACAGAAAUGUAGUUGACGAGGAGGAGGUUUAUCGAAUUUUCGGCGGAUGCCUCCAAA

Tests used:
Details in all cases: with glucosamine-6-phosphate
glucosamine-6-phosphate [1] = variants of: B1; assay: kcat; higher = faster cleavage; RNA array
Outline: (§1)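 Ribozyme variants carrying barcodes were transcribed in situ on sequenced MiSeq chips by E. coli RNA polymerase and tracked at 37 °C with a hybridised Cy3 probe. They were exposed to 40 μM to 10 mM glucosamine-6-phosphate in HEPES/KCl/Mg(OAc)2 buffer. kobs came from exponential decay fits of normalised per-tile medians, and kcat and KM from weighted Michaelis–Menten fits.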

glucosamine-6-phosphate [2] = variants of: B1; assay: KM; higher = weaker cofactor use; RNA array
Outline: as §1

glucosamine-6-phosphate [3] = variants of: B1; assay: self-cleavage kobs at 40 uM GlcN6P; higher = faster cleavage; RNA array
Outline: as §1

glucosamine-6-phosphate [4] = variants of: B1; assay: self-cleavage kobs at 160 uM GlcN6P; higher = faster cleavage; RNA array
Outline: as §1

glucosamine-6-phosphate [5] = variants of: B1; assay: self-cleavage kobs at 640 uM GlcN6P; higher = faster cleavage; RNA array
Outline: as §1

glucosamine-6-phosphate [6] = variants of: B1; assay: self-cleavage kobs at 2500 uM GlcN6P; higher = faster cleavage; RNA array
Outline: as §1

glucosamine-6-phosphate [7] = variants of: B1; assay: self-cleavage kobs at 10000 uM GlcN6P; higher = faster cleavage; RNA array
Outline: as §1

Variant | kcat (glucosamine-6-phosphate [1]) | KM (glucosamine-6-phosphate [2]) | self-cleavage kobs at 40 uM GlcN6P (glucosamine-6-phosphate [3]) | self-cleavage kobs at 160 uM GlcN6P (glucosamine-6-phosphate [4]) | self-cleavage kobs at 640 uM GlcN6P (glucosamine-6-phosphate [5]) | self-cleavage kobs at 2500 uM GlcN6P (glucosamine-6-phosphate [6]) | self-cleavage kobs at 10000 uM GlcN6P (glucosamine-6-phosphate [7])
AUAAAAGCGCCAUAACUACAGAAAUGUAGUUGUCGAGGAGGAGGUUUAUCGAAUUUUCGGCGGAUGCCUCCAAA [G13U A33U] | 1.31e-05 ± 3.3e-07 s⁻¹ | 1.49 ± 0.19 mM | < 1e-05 s⁻¹ | < 1e-05 s⁻¹ | – | – | –
AUAAAAGCGCCACAACUACAGAAAUGUAAUUGACGAGGAGGAGGUUUAUCGAAUUUUCGGCGGAUGCCUCCAAA [G13C G29A] | 0.000136 ± 1.6e-05 s⁻¹ | 3.07 ± 0.91 mM | – | – | 3.33e-05 ± 1.2e-05 s⁻¹ | 5.64e-05 ± 9.9e-06 s⁻¹ | 0.000106 ± 1.2e-05 s⁻¹
AUAAAAGCGCCACAACUACAGAAAUGUAGUUCACGAGGAGGAGGUUUAUCGAAUUUUCGGCGGAUGCCUCCAAA [G13C G32C] | 0.000728 ± 0.00016 s⁻¹ | 3.05 ± 1.2 mM | – | 4.58e-05 ± 1.6e-05 s⁻¹ | 0.000109 ± 2.2e-05 s⁻¹ | 0.000408 ± 7e-05 s⁻¹ | 0.000534 ± 7.8e-05 s⁻¹
AUAAAAGCGCCACAACUACAGAAAUGUAGUUGACGAGGAGGAGGUUUAUCGAAUUUUCGGCGGAUGCCUCCAAA [G13C] | 0.000191 ± 5.2e-06 s⁻¹ | 4.22 ± 0.25 mM | – | – | 2.7e-05 ± 1.3e-06 s⁻¹ | 6.98e-05 ± 1.4e-06 s⁻¹ | 0.000135 ± 1.8e-06 s⁻¹
AUAAAAGCGCCAUAACUACAGAAAUGUAGUUGACGAGGAGGAGGUUUAUCGAAUUUUCGGCGGAUGCCUCCAAA [G13U] | 0.00254 ± 0.00046 s⁻¹ | 3.67 ± 0.84 mM | 3.52e-05 ± 1.3e-06 s⁻¹ | 0.000104 ± 3.4e-06 s⁻¹ | 0.000355 ± 7.3e-06 s⁻¹ | 0.00118 ± 5e-05 s⁻¹ | 0.00186 ± 5.8e-05 s⁻¹
AUAAAAGCGCCAUAACUACAGAAAUGUAGUUGACGAGGAGGGGGUUUAUCGAAUUUUCGGCGGAUGCCUCCAAA [G13U A42G] | 0.00137 ± 0.00022 s⁻¹ | 1.68 ± 0.46 mM | 2.35e-05 ± 1.1e-05 s⁻¹ | 0.000152 ± 3.8e-05 s⁻¹ | – | 0.00082 ± 0.00017 s⁻¹ | 0.00117 ± 0.00027 s⁻¹
AUAAAAGCGCCAAAACUACAGAAAUGUAGUUGACGAGGAGGAGGUUUAUCGAAUUUUCGGCGGAUGCCGCCAAA [G13A U69G] | 6.29e-05 ± 1.9e-05 s⁻¹ | – | – | 4.26e-05 ± 1.5e-05 s⁻¹ | 7.5e-05 ± 1.3e-05 s⁻¹ | 6.99e-05 ± 1.7e-05 s⁻¹ | –
AUAAAAGCGCCACAACUACAGAAAUGUAGUUGAUUAGGAGGAGGUUUAUCGAAUUUUCGGCGGAUGCCUCCAAA [G13C C34U G35U] | < 1e-05 s⁻¹ | – | < 1e-05 s⁻¹ | < 1e-05 s⁻¹ | – | < 1e-05 s⁻¹ | < 1e-05 s⁻¹
AUAAAAGCGCCACAAGUACAGAAAUGUAGUUGACGAGGAGGAGGUUUAUCGAAUAUUCGCCGGAUGCCUGCAAA [G13C C16G U55A G60C C70G] | 1.82e-05 ± 7.2e-06 s⁻¹ | – | – | – | – | – | –
AUAAAAGCGCCAUAACUACAGAAAUGUAGUUGACGCGUCGGAGGUUUAUCGAAUUUUCGGCGGAUGCCUCCAAA [G13U A36C G38U A39C] | 1.03e-05 ± 4.7e-06 s⁻¹ | – | – | – | – | – | –
AUAAAAGCGCCAAAACUACAGAAAUGUAGUUGACGAGGAGGAGGCUUAUCGAAUUUUCGGCGGAUGCCUCCAAA [G13A U45C] | 3.07e-05 ± 4.9e-06 s⁻¹ | – | – | < 1e-05 s⁻¹ | – | – | 2.82e-05 ± 1.3e-05 s⁻¹
AUAAAAGCGCCAUAACUACAGAAAUGUAGUUGACGAGGAGGGGGAUUAUCGAAUUUUCGGCGGAUGCCUCCAAA [G13U A42G U45A] | 0.00154 ± 0.00051 s⁻¹ | – | – | – | 0.000169 ± 6.2e-05 s⁻¹ | 0.000951 ± 0.00031 s⁻¹ | 0.00104 ± 0.00021 s⁻¹
AUAAAAGCGCCACAACUACAGAAAUGUAGUGGACGAGGAGGAGGUUUAUCGAAUUUUCGGCGGAUGCCUUCAAA [G13C U31G C70U] | 0.000159 ± 3.6e-05 s⁻¹ | – | – | – | 4.2e-05 ± 1.9e-05 s⁻¹ | 0.000148 ± 3.9e-05 s⁻¹ | 0.000131 ± 2.7e-05 s⁻¹
AUAAAAGCGCCACAACUACAGAAAUGUAGUUGACGAGGAGGAGGUUUAUCGAAGUUUCGGCGGAUGCCUCCAAA [G13C U54G] | 0.000222 ± 4.5e-06 s⁻¹ | 6.04 ± 0.23 mM | – | – | – | 6.51e-05 ± 1e-05 s⁻¹ | 0.000138 ± 1.7e-05 s⁻¹
AUAAAAGCGCCACAACUACAGAAAUGUAGUUGACGAGGAGGAGGUUUAUCGAAUUUUCGGCGGAUGCCCCCAAA [G13C U69C] | 7.75e-05 ± 1.1e-05 s⁻¹ | – | – | – | 7.04e-05 ± 2.6e-05 s⁻¹ | 5.9e-05 ± 1.8e-05 s⁻¹ | 8.36e-05 ± 1.7e-05 s⁻¹
AUAAAAGCGCCACAACUACAGAAAUGUAGUUGACGAGGAGGAGGUUUAUCGAAUUUUCGGCGGAUACCUCCAAA [G13C G66A] | 6.45e-05 ± 6.3e-06 s⁻¹ | 1.63 ± 0.6 mM | – | – | – | 4.1e-05 ± 1.2e-05 s⁻¹ | 5.46e-05 ± 1.2e-05 s⁻¹
AUAAAAGCGCCAUAACUACAGAAAUGUAGUUGACGAGGAGGAGGUUUAUCGGAUUUUCGGCGGAUGCCUCCAAA [G13U A52G] | 7e-05 ± 5.1e-06 s⁻¹ | 0.817 ± 0.37 mM | < 1e-05 s⁻¹ | – | – | 6.21e-05 ± 1.3e-05 s⁻¹ | 6.34e-05 ± 7e-06 s⁻¹
AUAAAAGCGCCACAACUACAGAAAUGUAGUUGGCGAGGAGGAGGUUUAUCGAAUUUUCGGCGGAUGCCUCCAAA [G13C A33G] | < 1e-05 s⁻¹ | – | – | – | < 1e-05 s⁻¹ | – | < 1e-05 s⁻¹
AUAAAAGCGCCACAACUACAGAAAUGUAGUUGACGAGGAGGAGGUUUAUCGAAUUUUCGGCGGAUGACUCCAAA [G13C C67A] | 5.87e-05 ± 1.1e-05 s⁻¹ | 5.93 ± 2.6 mM | – | – | – | – | 3.7e-05 ± 9e-06 s⁻¹
